We go through three molecules from patent EP4789728A2 (Serpin Pharma, LLC, dated 2026).

No end group written: not given here.

Test [1] has as its target T1, recombinant LRP1-FC fusion protein (Cluster II) (UniProt Q07954 805-1184, limits assumed).
T1 construct: domain: Cluster II; Captured on protein G Dynabeads; not shown: Fc part
T1 sequence (looked up): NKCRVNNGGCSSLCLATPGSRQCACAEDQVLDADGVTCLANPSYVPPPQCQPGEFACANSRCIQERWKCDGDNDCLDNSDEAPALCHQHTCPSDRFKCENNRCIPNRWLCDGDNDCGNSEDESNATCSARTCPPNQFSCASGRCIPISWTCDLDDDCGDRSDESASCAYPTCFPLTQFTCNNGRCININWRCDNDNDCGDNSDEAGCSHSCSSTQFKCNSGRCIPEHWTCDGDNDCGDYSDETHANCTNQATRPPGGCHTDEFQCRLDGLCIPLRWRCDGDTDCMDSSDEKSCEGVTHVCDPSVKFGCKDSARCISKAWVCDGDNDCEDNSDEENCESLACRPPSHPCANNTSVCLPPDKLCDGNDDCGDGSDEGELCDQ
The test is described as follows: Cy5.5-labelled peptide on LRP1-FC (Cluster II) protein G beads, flow cytometry.

The target in test [2] is T2, Recombinant LRP1 (Cluster II) (UniProt Q07954 805-1184, limits assumed).
T2 construct: domain: Cluster II; Coated on the ELISA plate
T2 sequence (looked up): T1 sequence (looked up)
The experiment in a line: ELISA, plate-bound recombinant LRP1 (Cluster II), increasing concentrations of biotinylated peptide, streptavidin HRP. (In an ELISA, binding on a coated surface is turned into a signal by an enzyme label.)

The target in the next test is TMPRSS2 (UniProt O15393 106-492, limits assumed). The experiment in a line: cell-based or functional assay.
Chain of TMPRSS2 (O15393 106-492 limits assumed): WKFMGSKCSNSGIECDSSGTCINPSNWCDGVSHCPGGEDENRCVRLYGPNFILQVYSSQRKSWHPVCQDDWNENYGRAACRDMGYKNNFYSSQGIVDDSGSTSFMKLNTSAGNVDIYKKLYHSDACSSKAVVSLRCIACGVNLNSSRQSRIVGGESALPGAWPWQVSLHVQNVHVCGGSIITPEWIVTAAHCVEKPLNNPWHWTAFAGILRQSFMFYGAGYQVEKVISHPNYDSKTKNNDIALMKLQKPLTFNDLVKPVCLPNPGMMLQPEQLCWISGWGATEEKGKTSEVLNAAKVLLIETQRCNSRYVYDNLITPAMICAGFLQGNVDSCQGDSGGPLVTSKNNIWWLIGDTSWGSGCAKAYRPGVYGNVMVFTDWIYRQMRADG

B1: SP34 (Scrambled Core) (peptide)
peptide: FPKMVPQFNTELKIFPEVNIK
modifications: also: biotinylated in ELISA, site not given here, labelled with Cy5.5 in bead assay, site not given here
notes: Contains the amino acids found in SP16 in scrambled orientation; also called scrambled control; scrambled control SP34 peptide
Take B1: the binding result in test [1] is on record as “no binding (tested: 1µg/ml)”; in test [2], “no binding”.

B2: SP163M (peptide)
peptide: VKFNKPFVFLXIEQNTK
modifications: not fully specified; Norleucine (Nle) in place of the methionine (VKFNKPFVFL[Nle]IEQNTK); N-terminus acetylated; C-terminus amidated; biotinylated in the ELISA (Figure 3); labelled with Cy5.5 in the bead assay (Figure 4)
As for B2, in the test with TMPRSS2, the “IC50 of inhibition of TMPRSS2 activity” value is 1.12 µg/mL.

B3: SP16AALRP1 (peptide)
peptide: VKFNKAAAAAAIEQNTK
modifications: not fully specified
notes: also called SP16AALRP1 peptide
As to B3, the binding result in test [1] is listed as “no binding (tested: 1µg/ml)”.
